Data: patent publication US20100093086A1 (RESEARCH FOUNDATION OF STATE UNIVERSITY OF NEW YORK, published 2010)
Bridges are numbered along the chain shown (N, C = ends). [ ]: non-standard residue; d: D form. code β = tetrazole-bearing lysine Lys(tetrazole), tetrazole half of pyrazoline cross-linker; L3 = not defined here

T1: GST-MDMX containing full-length human MDMX (human, UniProt O15151 1-490)
T1 construct: mature; Expressed in E. coli and purified on glutathione-agarose; not shown: GST tag
T1 sequence (looked up): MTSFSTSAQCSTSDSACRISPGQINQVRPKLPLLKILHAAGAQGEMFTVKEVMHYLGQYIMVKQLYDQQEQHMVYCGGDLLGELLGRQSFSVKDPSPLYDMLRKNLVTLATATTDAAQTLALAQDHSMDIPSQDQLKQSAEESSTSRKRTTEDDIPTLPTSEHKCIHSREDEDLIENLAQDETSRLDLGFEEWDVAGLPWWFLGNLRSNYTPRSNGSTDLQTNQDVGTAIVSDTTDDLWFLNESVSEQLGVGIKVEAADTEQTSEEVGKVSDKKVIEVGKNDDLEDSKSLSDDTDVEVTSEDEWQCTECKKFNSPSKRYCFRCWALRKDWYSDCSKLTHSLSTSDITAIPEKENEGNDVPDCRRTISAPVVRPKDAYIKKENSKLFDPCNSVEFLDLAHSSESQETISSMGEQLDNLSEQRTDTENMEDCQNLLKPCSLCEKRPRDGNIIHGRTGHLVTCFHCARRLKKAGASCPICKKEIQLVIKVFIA


How the values were obtained:
[1] = target: T2, GST-MDM2 containing full-length human MDM2 (human, UniProt Q00987 1-491); experiment: competition ELISA: peptide + GST-MDM2 on plated His6-p53
T2 construct: mature; Expressed in E. coli and purified on glutathione-agarose; also called GST-HDM2; not shown: GST tag

[2] = target: T1, GST-MDMX containing full-length human …; experiment: competition ELISA: peptide + GST-MDMX on plated His6-p53
Procedure: ELISA plates were incubated with 2.5 μg/ml His6-p53 in phosphate-buffered saline (PBS) for 16 h. After washing with PBS+0.1% Tween 20 (PBST), the plates were blocked with PBS+5% nonfat dry milk+0.1% Tween 20 (PBSMT) for 0.5 hour. The peptides were dissolved in DMSO. […] The plates were developed by incubation with TMB peroxidase substrate (KPL) and measured by absorbance at 450 nm.

T2 sequence (Q00987 whole entry): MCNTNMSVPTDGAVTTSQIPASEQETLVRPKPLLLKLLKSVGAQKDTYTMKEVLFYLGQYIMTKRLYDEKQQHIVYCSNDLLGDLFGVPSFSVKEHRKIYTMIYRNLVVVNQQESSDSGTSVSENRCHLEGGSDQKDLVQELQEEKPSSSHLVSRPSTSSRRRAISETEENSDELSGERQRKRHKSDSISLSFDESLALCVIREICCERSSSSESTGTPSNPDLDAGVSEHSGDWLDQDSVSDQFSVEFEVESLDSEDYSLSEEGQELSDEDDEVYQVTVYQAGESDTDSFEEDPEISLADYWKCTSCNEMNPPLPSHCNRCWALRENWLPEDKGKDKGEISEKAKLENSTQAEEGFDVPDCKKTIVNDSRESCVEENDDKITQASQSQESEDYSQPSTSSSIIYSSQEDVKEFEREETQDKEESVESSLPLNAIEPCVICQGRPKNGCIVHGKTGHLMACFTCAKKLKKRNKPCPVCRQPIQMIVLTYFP

Binder	IC50 [1]	IC50 [2]
Ac-LTFXHYWXQLTS-NH2 (bridge 4-8 via L3; not fully specified (residues 4, 8); printed as LTFαHYWβQLTS, Stapled peptide) [sPDI-4]	0.087 µM	0.39 µM
Ac-LTFXHYWXRLTS-NH2 (bridge 4-8 via L3; not fully specified (residues 4, 8); printed as LTFαHYWβRLTS, Stapled peptide) [sPDI-8]	0.055 µM	0.231 µM
Ac-LTFXHYWXRLRS-NH2 (bridge 4-8 via L3; not fully specified (residues 4, 8); printed as LTFαHYWβRLRS, Stapled peptide) [sPDI-9]	0.179 µM	0.525 µM
Ac-TSFAXYWNXLSP-NH2 (bridge 5-9 via L3; not fully specified (residues 5, 9); printed as TSFAαYWNβLSP; also: pyrazoline cross-linker L3 between α and β, Stapled peptide) [sPMI-2]	1.08 µM	3.65 µM
Ac-TSFXQYWNLLXP-NH2 (bridge 4-11 via L3; not fully specified (residues 4, 11); printed as TSFαQYWNLLβP; also: pyrazoline cross-linker L3 between α and β, Stapled peptide) [sPMI-3]	0.023 µM	1.49 µM
Ac-TSFXRYWXRLSP-NH2 (bridge 4-8 via L3; not fully specified (residues 4, 8); printed as TSFαRYWβRLSP; also: pyrazoline cross-linker L3 between α and β, Stapled peptide) [sPMI-4]	1.23 µM	1.84 µM
Ac-TSFXQYW[code β]RLRP-NH2 (bridge 4-8; not fully specified (residue 4, bridges); printed as TSFαQYWβRLRP; also: pyrazoline cross-linker L3 between α and β, Stapled peptide) [sPMI-5]	0.597 µM	0.298 µM
